B1: RIT1 (parent)
chain: FHALVREIRRKEKEAVLAMEKKSK
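Also: lentivirally expressed fusions sorted by FACS into six bins by GFP to DsRed ratio, PSI derived from sequencing read proportions per bin multiplied by bin number.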

In this data set the parent is B1. Briefly: protein stability index of a GFP-peptide fusion (GPS, HEK-293T) (PSI 1-6); higher = more stable. As to conditions: c terminus: a fixed tail appended.
As for FHALVREIRRKEKEAVLAMEDKSK [K21D], the protein stability index stood at 2.14. To FHALVREIRRKEKEAVLAMENKSK [K21N] belongs 1.77. As for FHALVREIRRKEKEAVLAMESKSK [K21S], the protein stability index stood at 1.56.

In the case of FHALVREIRRKEKEAVLAMEWKSK [K21W], the protein stability index turned out to be 2.48.

On to FHALVREIRRKEKEAVLAMEMKSK [K21M], for which the protein stability index was determined as 1.28. Then FHALVREIRRKEKEAVLAMECKSK [K21C], with 1.99; and FHALVREIRRKEKEAVLAMEAKSK [K21A], with 1.9.

FHALVREIRRKEKEAVLAMEYKSK [K21Y]: the protein stability index stood at 1.56. Take FHALVREIRRKEKEAVLAMEQKSK [K21Q]: the protein stability index turned out to be 2.66. On to FHALVREIRRKEKEAVLAMEHKSK [K21H], for which the protein stability index stood at 2.68. Turning to FHALVREIRRKEKEAVLAMETKSK [K21T], the protein stability index was determined as 2.11. For the variant FHALVREIRRKEKEAVLAMEPKSK [K21P], the protein stability index is 2.17. On to FHALVREIRRKEKEAVLAMEIKSK [K21I], for which the protein stability index was 1.41.

For FHALVREIRRKEKEAVLAMEGKSK [K21G], the protein stability index was 2.17. With FHALVREIRRKEKEAVLAMEVKSK [K21V], the protein stability index is 3.01.

As for FHALVREIRRKEKEAVLAMEFKSK [K21F], the protein stability index is 2.74.

As to FHALVREIRRKEKEAVLAMELKSK [K21L], the protein stability index amounted to 2.2. On to FHALVREIRRKEKEAVLAMEEKSK [K21E], for which the protein stability index was 1.39. Regarding FHALVREIRRKEKEAVLAMCKKSK [E20C], the protein stability index worked out at 1.52.

For FHALVREIRRKEKEAVLAMYKKSK [E20Y], the protein stability index turned out to be 2.35. Then FHALVREIRRKEKEAVLAMRKKSK [E20R], with 2.59; and FHALVREIRRKEKEAVLAMNKKSK [E20N], with 1.88. Regarding FHALVREIRRKEKEAVLAMLKKSK [E20L], the protein stability index came to 1.61. As for FHALVREIRRKEKEAVLAMSKKSK [E20S], the protein stability index turned out to be 2.53. Regarding FHALVREIRRKEKEAVLAMGKKSK [E20G], the protein stability index is 1.41. Then FHALVREIRRKEKEAVLAMQKKSK [E20Q], with 1.65. To FHALVREIRRKEKEAVLAMPKKSK [E20P] belongs 2.42; to FHALVREIRRKEKEAVLAMIKKSK [E20I], 1.94. FHALVREIRRKEKEAVLAMKKKSK [E20K]: the protein stability index amounted to 2.08.

Regarding FHALVREIRRKEKEAVLAMMKKSK [E20M], the protein stability index amounted to 2.08. As for FHALVREIRRKEKEAVLAMFKKSK [E20F], the protein stability index came to 2.18. As for FHALVREIRRKEKEAVLAMDKKSK [E20D], the protein stability index came out at 2.17. Then FHALVREIRRKEKEAVLAMVKKSK [E20V], with 2.52. On to FHALVREIRRKEKEAVLAMTKKSK [E20T], for which the protein stability index was found to be 1.92. Consider FHALVREIRRKEKEAVLAMAKKSK [E20A], for which the protein stability index amounted to 2.07. To FHALVREIRRKEKEAVLAMWKKSK [E20W] belongs 2.98. As for FHALVREIRRKEKEAVLAMHKKSK [E20H], the protein stability index amounted to 2.12. To FHALVREIRRKEKEAVLAMEKVSK [K22V] belongs 1.55; to FHALVREIRRKEKEAVLAMEKASK [K22A], 2.4. FHALVREIRRKEKEAVLAMEKPSK [K22P]: the protein stability index was 1.93. In the case of FHALVREIRRKEKEAVLAMEKWSK [K22W], the protein stability index was found to be 1.46.

On to FHALVREIRRKEKEAVLAMEKRSK [K22R], for which the protein stability index was 2.41. As to FHALVREIRRKEKEAVLAMEKTSK [K22T], the protein stability index was found to be 2.3. Consider FHALVREIRRKEKEAVLAMEKQSK [K22Q], for which the protein stability index is 1.67. With FHALVREIRRKEKEAVLAMEKYSK [K22Y], the protein stability index is 1.49.

With FHALVREIRRKEKEAVLAMEKGSK [K22G], the protein stability index is 1.83. As for FHALVREIRRKEKEAVLAMEKLSK [K22L], the protein stability index came to 1.97. Turning to FHALVREIRRKEKEAVLAMEKNSK [K22N], the protein stability index turned out to be 2.29. For FHALVREIRRKEKEAVLAMEKMSK [K22M], the protein stability index is 2.34.

As to FHALVREIRRKEKEAVLAMEKSSK [K22S], the protein stability index amounted to 1.42.

On to FHALVREIRRKEKEAVLAMEKDSK [K22D], for which the protein stability index worked out at 1.8. As to FHALVREIRRKEKEAVLAMEKHSK [K22H], the protein stability index was found to be 1.57. As for FHALVREIRRKEKEAVLAMEKISK [K22I], the protein stability index amounted to 1.71. Consider FHALVREIRRKEKEAVLAMEKCSK [K22C], for which the protein stability index is 1.65. For the variant FHALVREIRRKEKEAVLAMEKESK [K22E], the protein stability index came out at 1.87. Then FHALVREIRRKEKEAVLAMEKFSK [K22F], with 1.84; and FHALVREIRRKEKEAVLAMEKKSA [K24A], with 1.91. To FHALVREIRRKEKEAVLAMEKKSC [K24C] belongs 2.24.

For FHALVREIRRKEKEAVLAMEKKSF [K24F], the protein stability index was found to be 1.77.

As for FHALVREIRRKEKEAVLAMEKKSD [K24D], the protein stability index is 1.83.

With FHALVREIRRKEKEAVLAMEKKSI [K24I], the protein stability index was found to be 2.5. Consider FHALVREIRRKEKEAVLAMEKKSL [K24L], for which the protein stability index amounted to 1.99. To FHALVREIRRKEKEAVLAMEKKSG [K24G] belongs 2.4; to FHALVREIRRKEKEAVLAMEKKSE [K24E], 1.95. With FHALVREIRRKEKEAVLAMEKKSH [K24H], the protein stability index stood at 1.86.

For FHALVREIRRKEKEAVLAMEKKSN [K24N], the protein stability index was 1.43. Consider FHALVREIRRKEKEAVLAMEKKSM [K24M], for which the protein stability index is 1.78. With FHALVREIRRKEKEAVLAMEKKPK [S23P], the protein stability index was 1.37. For FHALVREIRRKEKEAVLAMEKKTK [S23T], the protein stability index turned out to be 1.67. For FHALVREIRRKEKEAVLAMEKKLK [S23L], the protein stability index was found to be 2.59. FHALVREIRRKEKEAVLAMEKKIK [S23I]: the protein stability index came out at 1.76. As for FHALVREIRRKEKEAVLAMEKKCK [S23C], the protein stability index worked out at 2.27.

Take FHALVREIRRKEKEAVLAMEKKGK [S23G]: the protein stability index amounted to 1.68.

With FHALVREIRRKEKEAVLAMEKKYK [S23Y], the protein stability index was 2.83. To FHALVREIRRKEKEAVLAMEKKDK [S23D] belongs 1.72; to FHALVREIRRKEKEAVLAMEKKHK [S23H], 1.67.

With FHALVREIRRKEKEAVLAMEKKEK [S23E], the protein stability index was determined as 1.7.

With FHALVREIRRKEKEAVLAMEKKFK [S23F], the protein stability index turned out to be 2.09.

Regarding FHALVREIRRKEKEAVLAMEKKQK [S23Q], the protein stability index worked out at 2.22.

As for FHALVREIRRKEKEAVLAMEKKNK [S23N], the protein stability index was 1.64. FHALVREIRRKEKEAVLAMEKKMK [S23M]: the protein stability index is 1.82. For the variant FHALVREIRRKEKEAVLAMEKKKK [S23K], the protein stability index was 2.31.

Turning to FHALVREIRRKEKEAVLAMEKKVK [S23V], the protein stability index is 1.33. Consider FHALVREIRRKEKEAVLAMEKKAK [S23A], for which the protein stability index worked out at 1.64.

In the case of FHALVREIRRKEKEAVLAQEKKSK [M19Q], the protein stability index amounted to 1.44. On to FHALVREIRRKEKEAVLAYEKKSK [M19Y], for which the protein stability index is 1.76.

Regarding FHALVREIRRKEKEAVLAWEKKSK [M19W], the protein stability index is 1.53. To FHALVREIRRKEKEAVLAPEKKSK [M19P] belongs 1.7. On to FHALVREIRRKEKEAVLAREKKSK [M19R], for which the protein stability index was 2.3. On to FHALVREIRRKEKEAVLATEKKSK [M19T], for which the protein stability index turned out to be 1.78. Then FHALVREIRRKEKEAVLANEKKSK [M19N], with 2.14. FHALVREIRRKEKEAVLALEKKSK [M19L]: the protein stability index is 3.14. Then FHALVREIRRKEKEAVLAVEKKSK [M19V], with 1.79. As to FHALVREIRRKEKEAVLASEKKSK [M19S], the protein stability index came to 1.79.

The values above are taken from the supplement of paper PMC10567573.
